Measured values from patent US6942853.
Each block holds one substance with its values, some of them ahead of it.

Experiments:
[1] = biological target: LAP-mIFNβ fusion protein (human (LAP of TGFβ) fused to mouse (IFNβ)); assay: cell-based or functional assay
[2] = tested on: mIFNβ-LAP fusion protein
[3] = tested on: CHO-derived latent TGFβ binding protein (LTBP)
[4] = tested on: LAP-mIFNβ fusion protein
[5] = tested on: 75 kDa glycosylated product of LAP-mIFNβ
[6] = tested on: 75 kDa glycosylated product of mIFNβ-LAP
Sequence of 75 kDa glycosylated product of mIFNβ-LAP (chain, as listed by the source): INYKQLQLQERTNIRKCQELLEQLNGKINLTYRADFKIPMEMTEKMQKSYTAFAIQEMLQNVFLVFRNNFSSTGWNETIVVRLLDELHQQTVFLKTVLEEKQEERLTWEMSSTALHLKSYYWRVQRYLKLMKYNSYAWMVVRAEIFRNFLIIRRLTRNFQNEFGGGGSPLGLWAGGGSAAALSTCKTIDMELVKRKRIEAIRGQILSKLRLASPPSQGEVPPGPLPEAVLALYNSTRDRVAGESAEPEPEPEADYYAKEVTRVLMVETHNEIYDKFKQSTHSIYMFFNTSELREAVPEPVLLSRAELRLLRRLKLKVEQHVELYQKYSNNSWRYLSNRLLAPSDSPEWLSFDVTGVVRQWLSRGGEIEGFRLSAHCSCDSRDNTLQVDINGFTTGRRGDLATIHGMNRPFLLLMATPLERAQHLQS

Sequence of LAP-mIFNβ fusion protein (chain, as listed by the source): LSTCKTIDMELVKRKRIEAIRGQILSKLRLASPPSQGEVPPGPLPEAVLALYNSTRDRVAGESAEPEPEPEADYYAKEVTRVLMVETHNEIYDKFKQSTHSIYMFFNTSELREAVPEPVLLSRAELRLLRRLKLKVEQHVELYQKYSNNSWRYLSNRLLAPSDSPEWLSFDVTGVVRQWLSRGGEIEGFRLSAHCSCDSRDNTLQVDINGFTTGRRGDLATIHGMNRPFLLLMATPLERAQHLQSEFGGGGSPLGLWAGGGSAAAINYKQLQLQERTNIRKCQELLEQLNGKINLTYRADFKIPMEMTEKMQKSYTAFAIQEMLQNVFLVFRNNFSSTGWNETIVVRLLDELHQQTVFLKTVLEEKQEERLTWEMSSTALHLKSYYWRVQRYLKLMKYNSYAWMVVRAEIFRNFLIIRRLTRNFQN
Sequence of recombinant pro-MMP9 (P14780 20-707): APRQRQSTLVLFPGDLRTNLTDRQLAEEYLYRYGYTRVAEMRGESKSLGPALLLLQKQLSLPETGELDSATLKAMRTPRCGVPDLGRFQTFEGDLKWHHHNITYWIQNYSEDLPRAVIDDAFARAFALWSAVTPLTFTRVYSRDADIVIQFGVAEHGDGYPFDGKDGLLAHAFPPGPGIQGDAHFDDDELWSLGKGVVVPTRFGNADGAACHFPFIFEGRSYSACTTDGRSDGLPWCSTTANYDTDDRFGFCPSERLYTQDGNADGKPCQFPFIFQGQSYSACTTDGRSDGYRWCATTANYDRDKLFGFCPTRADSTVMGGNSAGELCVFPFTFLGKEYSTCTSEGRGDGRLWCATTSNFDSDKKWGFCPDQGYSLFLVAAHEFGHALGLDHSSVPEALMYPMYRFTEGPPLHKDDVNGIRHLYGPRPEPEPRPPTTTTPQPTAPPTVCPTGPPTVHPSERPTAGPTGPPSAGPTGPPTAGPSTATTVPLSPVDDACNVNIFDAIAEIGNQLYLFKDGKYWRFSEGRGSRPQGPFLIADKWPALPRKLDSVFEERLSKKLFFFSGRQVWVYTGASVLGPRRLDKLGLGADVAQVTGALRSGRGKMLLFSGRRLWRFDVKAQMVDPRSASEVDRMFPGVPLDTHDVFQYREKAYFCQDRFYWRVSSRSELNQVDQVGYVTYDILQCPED
Sequence of active MMP1 (recombinant) (P03956 100-469): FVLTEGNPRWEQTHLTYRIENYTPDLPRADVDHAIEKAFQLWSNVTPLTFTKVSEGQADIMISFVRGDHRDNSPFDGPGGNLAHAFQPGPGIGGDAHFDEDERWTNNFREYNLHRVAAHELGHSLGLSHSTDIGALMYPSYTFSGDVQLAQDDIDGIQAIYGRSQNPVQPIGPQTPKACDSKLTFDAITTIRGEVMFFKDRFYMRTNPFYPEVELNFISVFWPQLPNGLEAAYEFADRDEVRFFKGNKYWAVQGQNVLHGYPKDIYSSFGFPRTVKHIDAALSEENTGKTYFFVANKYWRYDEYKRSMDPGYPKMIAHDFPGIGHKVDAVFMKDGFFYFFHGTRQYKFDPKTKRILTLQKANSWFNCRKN

fold activation of antiviral activity (non-concentrated supernatants from MTX amplified cells) [1]: 21 fold
Substance: active MMP1 (recombinant) (enzyme)

Substance: active MMP3 (recombinant)
mIFNβ biological activity (U/ml) after MMP treatment [2]: 3070 U/ml | proteolytic cleavage of immunoprecipitated protein, SDS-PAGE [2]: MMP3 was capable on its own to digest it into several discreet bands | proteolytic cleavage of immunoprecipitated protein, SDS-PAGE [3]: The LTBP band was also cleaved by MMP3 | mIFNβ biological activity (U/ml) after MMP treatment [4]: 9220 U/ml | proteolytic cleavage of immunoprecipitated protein, SDS-PAGE [4]: MMP3 was capable on its own to digest it into several discreet bands

Substance: recombinant pro-MMP9
mIFNβ biological activity (U/ml) after MMP treatment [2]: 1540 U/ml | proteolytic cleavage [2]: MMP9 could not cleave the fusion proteins | proteolytic cleavage of immunoprecipitated protein, SDS-PAGE [2]: pro-MMP9 or MMP1 did not cleave very efficiently the 57 kDa recombinant product | mIFNβ biological activity (U/ml) after MMP treatment [4]: 288 U/ml | proteolytic cleavage [4]: MMP9 could not cleave the fusion proteins | proteolytic cleavage of immunoprecipitated protein, SDS-PAGE [4]: pro-MMP9 or MMP1 did not cleave very efficiently the 57 kDa recombinant product

Substance: active MMP1 (recombinant)
mIFNβ biological activity (U/ml) after MMP treatment [2]: 6140 U/ml | proteolytic cleavage of immunoprecipitated protein, SDS-PAGE [2]: pro-MMP9 or MMP1 did not cleave very efficiently the 57 kDa recombinant product | mIFNβ biological activity (U/ml) after MMP treatment [4]: 6140 U/ml | proteolytic cleavage of immunoprecipitated protein, SDS-PAGE [4]: pro-MMP9 or MMP1 did not cleave very efficiently the 57 kDa recombinant product | proteolytic cleavage of immunoprecipitated protein, SDS-PAGE [5]: MMP1 was capable of cleaving the glycosylated form of the fusion protein | proteolytic cleavage of immunoprecipitated protein, SDS-PAGE [6]: MMP1 was capable of cleaving the glycosylated form of the fusion protein

fold activation of antiviral activity (non-concentrated supernatants from MTX amplified cells) [1]: 32 fold
Substance: active MMP3 (recombinant) (enzyme)
